We go through six molecules from patent publication US20250136686A1 (GUANGDONG KEGUANDA PHARMACEUTICAL TECHNOLOGY, published 2025).

Experiment [1] deals with T1, CD101 (human, UniProt Q93033 21-1021).
T1 chain: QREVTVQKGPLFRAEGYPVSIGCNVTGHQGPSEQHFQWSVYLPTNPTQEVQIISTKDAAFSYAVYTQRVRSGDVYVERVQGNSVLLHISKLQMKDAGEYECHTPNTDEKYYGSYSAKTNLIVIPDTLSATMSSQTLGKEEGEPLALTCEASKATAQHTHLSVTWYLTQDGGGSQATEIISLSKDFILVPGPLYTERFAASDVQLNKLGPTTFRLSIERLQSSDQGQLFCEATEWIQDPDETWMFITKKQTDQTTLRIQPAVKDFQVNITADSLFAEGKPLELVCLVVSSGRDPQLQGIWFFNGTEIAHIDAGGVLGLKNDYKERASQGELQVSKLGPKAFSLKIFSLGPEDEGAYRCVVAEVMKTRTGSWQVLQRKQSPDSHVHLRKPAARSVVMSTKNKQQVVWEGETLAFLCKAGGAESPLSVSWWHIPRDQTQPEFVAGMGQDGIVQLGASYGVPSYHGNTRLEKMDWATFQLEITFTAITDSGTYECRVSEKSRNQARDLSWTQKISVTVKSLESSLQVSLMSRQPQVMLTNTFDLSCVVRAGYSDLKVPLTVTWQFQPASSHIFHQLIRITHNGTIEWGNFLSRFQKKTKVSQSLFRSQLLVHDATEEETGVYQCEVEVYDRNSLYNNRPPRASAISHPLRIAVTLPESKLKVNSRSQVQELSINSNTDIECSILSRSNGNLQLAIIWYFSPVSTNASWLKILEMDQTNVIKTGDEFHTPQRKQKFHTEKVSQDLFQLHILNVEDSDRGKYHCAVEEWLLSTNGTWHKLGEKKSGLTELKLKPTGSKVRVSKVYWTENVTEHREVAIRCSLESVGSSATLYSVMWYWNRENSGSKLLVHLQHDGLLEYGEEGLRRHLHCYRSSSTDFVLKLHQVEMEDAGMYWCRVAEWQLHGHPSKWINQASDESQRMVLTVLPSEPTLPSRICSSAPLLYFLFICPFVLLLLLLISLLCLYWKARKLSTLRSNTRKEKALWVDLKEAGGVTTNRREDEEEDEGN
As to the kind of experiment: FACS.

For experiment [2], the target named is T2, CD101 (human, UniProt Q93033 21-1021).
T2 sequence (looked up): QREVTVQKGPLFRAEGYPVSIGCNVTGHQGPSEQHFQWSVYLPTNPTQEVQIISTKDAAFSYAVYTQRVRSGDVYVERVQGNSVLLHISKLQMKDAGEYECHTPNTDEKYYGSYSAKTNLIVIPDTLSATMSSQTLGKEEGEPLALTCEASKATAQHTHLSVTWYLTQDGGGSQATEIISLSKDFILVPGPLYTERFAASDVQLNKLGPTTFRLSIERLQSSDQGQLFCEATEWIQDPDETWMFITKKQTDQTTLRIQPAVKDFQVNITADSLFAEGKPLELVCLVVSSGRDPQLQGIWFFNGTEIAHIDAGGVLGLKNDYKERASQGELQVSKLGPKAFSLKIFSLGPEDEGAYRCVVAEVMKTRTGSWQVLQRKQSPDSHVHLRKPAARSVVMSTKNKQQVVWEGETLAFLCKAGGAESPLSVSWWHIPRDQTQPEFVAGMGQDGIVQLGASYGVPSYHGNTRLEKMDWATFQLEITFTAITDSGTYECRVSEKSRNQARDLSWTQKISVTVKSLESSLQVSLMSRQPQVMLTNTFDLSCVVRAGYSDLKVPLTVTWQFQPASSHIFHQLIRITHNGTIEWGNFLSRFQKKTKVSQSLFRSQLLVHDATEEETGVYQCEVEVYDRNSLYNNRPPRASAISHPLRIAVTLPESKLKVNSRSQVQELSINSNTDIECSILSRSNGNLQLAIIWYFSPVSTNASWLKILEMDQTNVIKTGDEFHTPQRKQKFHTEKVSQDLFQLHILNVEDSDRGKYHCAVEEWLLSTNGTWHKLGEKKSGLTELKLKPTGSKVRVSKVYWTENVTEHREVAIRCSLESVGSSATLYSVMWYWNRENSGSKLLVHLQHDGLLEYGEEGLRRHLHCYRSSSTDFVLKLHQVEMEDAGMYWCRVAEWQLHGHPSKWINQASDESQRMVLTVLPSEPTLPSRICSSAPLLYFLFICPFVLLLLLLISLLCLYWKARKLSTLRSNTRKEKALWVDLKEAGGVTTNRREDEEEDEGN
The experiment in a line: cell-based or functional assay.

Experiment [3] addresses T2, CD101. The experiment in a line: FACS, culture supernatant on 293F-CD101 cells. As to the method:
Expression vectors for humanized antibodies carrying a designed heavy-chain or light-chain sequence were transiently transfected into 293F cells in pairs according to a standard protocol. Specifically, PBS was added at 2 mL/well to a 6-well plate, then 2 μg of a pcDNA3.4-IgG1 expression vector and 2 μg of a pcDNA3.4-IgKc expression vector were added, and thorough mixing was conducted by pipetting up and down. 12 μL of a LVTransm transfection reagent was added, then thorough mixing was immediately conducted by pipetting up and down, and the plate was allowed to stand at room temperature for 10 min. A DNA/LVTransm complex was added to 3 mL of 293F cells, and gentle shaking was conducted for thorough mixing. The cells were further cultured for 3 d in a 37° C. and 5% CO₂ incubator, and a culture supernatant was collected through centrifugation and tested by FACS.
FACS was conducted according to a standard protocol. […] Cells were washed with PBS 3 times. 100 μL of a secondary antibody (PE-anti-human IgG, which was diluted 1:200) was added, thorough mixing was conducted, and incubation was conducted for 45 min at room temperature in the dark. Cells were washed with PBS 3 times and then resuspended with 500 μL of PBS. A fluorescence intensity was read by a multimode microplate reader for FACS analysis. […] In the follow-up experiments, the four combinations of VH1-VL1, VH1-VL2, VH3-VL1, and VH3-VL2 (hu.CA1 to hu.CA4) were taken as examples for antibody purification and affinity testing.

B1: 19-A11-H3-B11-VH3VL2 humanized antibody (hu.CA4) (antibody, V domains shown)
VH: EVQLVQSGAEVKKPGASVKVSCKASGFTLTEYTIHWVRQAPGQGLEWIGWFYPGSGGIKYNEKFQDRVTLTADTSISTVYMELSRLRSDDTVVYFCARHAFYRNYEYFDVWGTGTMVTVSS
VL: DIVMTQAPLSLPVTPGTPASISCRSSKSLLHSNGITYLYWYLQKPGQSPQLLIYQMSNLASGVPDRFSSSGSGTDFTLKISRVEAEDVGVYYCAQNLELPLTFGAGTKLEIK
In the experiment with CD101 [1], B1 had an EC50 of 8.49 µg/mL. In the experiment with CD101 [2], the “inhibitory effect for CD101 (flow cytometry of CD101 on Jurkat cells overexpressing CD101, 3 h, 1,600 ng/mL)” value is around 80% and the “inhibitory effect for CD101 (flow cytometry of CD101 on Jurkat cells overexpressing CD101, 8 h, 1,600 ng/mL)” value is at least 90%.

B2: 19-A11-H3-B11 chimeric antibody (CA1) (antibody, V domains shown)
VH: EVQLQQSGAELVRPGASVKLSCKASGFTLTEYTIHWVKQRSGQGLEWIGWFYPGSGGIKYNEKFKDKATLTADESSSTVYMELSRLTSEDSAVYFCARHAFYRNYEYFDVWGTGTTVTVSS
VL: DIVMTQAAFSNPVTLGTSASISCRSSKSLLHSNGITYLYWYLQKPGQSPQLLIYQMSNLASGVPDRFSSSGSGTDFTLRISRVEAEDVGVYYCAQNLELPLTFGAGTKLELK
Consider B2, for which the EC50 in the experiment with CD101 [1] amounted to 6.62 µg/mL. In addition, in the experiment with CD101 [2], the “inhibitory effect for CD101 (flow cytometry of CD101 on Jurkat cells overexpressing CD101, 3 h, 1,600 ng/mL)” value is around 80% and the “inhibitory effect for CD101 (flow cytometry of CD101 on Jurkat cells overexpressing CD101, 8 h, 1,600 ng/mL)” value is at least 90%.

B3: humanized antibody VH1-VL2 (hu.CA2) (antibody, V domains shown)
VH: EVQLVQSGAEVKKPGASVKVSCKASGFTLTEYTIHWVRQAPGQGLEWIGWFYPGSGGIKYNEKFQDRVTLTADESISTVYMELSRLRSDDTAVYFCARHAFYRNYEYFDVWGTGTMVTVSS
VL: DIVMTQAPLSLPVTPGTPASISCRSSKSLLHSNGITYLYWYLQKPGQSPQLLIYQMSNLASGVPDRFSSSGSGTDFTLKISRVEAEDVGVYYCAQNLELPLTFGAGTKLEIK
In the experiment with CD101 [1], B3 showed an EC50 of 9.1 µg/mL. In addition, in the experiment with CD101 [2], the “inhibitory effect for CD101 (flow cytometry of CD101 on Jurkat cells overexpressing CD101, 3 h, 1,600 ng/mL)” value was around 80% and the “inhibitory effect for CD101 (flow cytometry of CD101 on Jurkat cells overexpressing CD101, 8 h, 1,600 ng/mL)” value was at least 90%.

B4: humanized antibody VH1-VL1 (hu.CA1) (antibody, V domains shown)
VH: EVQLVQSGAEVKKPGASVKVSCKASGFTLTEYTIHWVRQAPGQGLEWIGWFYPGSGGIKYNEKFQDRVTLTADESISTVYMELSRLRSDDTAVYFCARHAFYRNYEYFDVWGTGTMVTVSS
VL: DIVMTQAPFSLPVTPGTPASISCRSSKSLLHSNGITYLYWYLQKPGQSPQLLIYQMSNLASGVPDRFSSSGSGTDFTLKISRVEAEDVGVYYCAQNLELPLTFGAGTKLEIK
With B4, the EC50 in the experiment with CD101 [1] stood at 7.9 µg/mL. Further, in the experiment with CD101 [2], the “inhibitory effect for CD101 (flow cytometry of CD101 on Jurkat cells overexpressing CD101, 3 h, 1,600 ng/mL)” value is around 80% and the “inhibitory effect for CD101 (flow cytometry of CD101 on Jurkat cells overexpressing CD101, 8 h, 1,600 ng/mL)” value was at least 90%.

B5: humanized antibody VH3-VL1 (hu.CA3) (antibody, V domains shown)
VH: EVQLVQSGAEVKKPGASVKVSCKASGFTLTEYTIHWVRQAPGQGLEWIGWFYPGSGGIKYNEKFQDRVTLTADTSISTVYMELSRLRSDDTVVYFCARHAFYRNYEYFDVWGTGTMVTVSS
VL: DIVMTQAPFSLPVTPGTPASISCRSSKSLLHSNGITYLYWYLQKPGQSPQLLIYQMSNLASGVPDRFSSSGSGTDFTLKISRVEAEDVGVYYCAQNLELPLTFGAGTKLEIK
As to B5, it took 11 µg/mL to reach a half-maximal effect in the experiment with CD101 [1] (EC50). Also, in the experiment with CD101 [2], the “inhibitory effect for CD101 (flow cytometry of CD101 on Jurkat cells overexpressing CD101, 3 h, 1,600 ng/mL)” value is around 80% and the “inhibitory effect for CD101 (flow cytometry of CD101 on Jurkat cells overexpressing CD101, 8 h, 1,600 ng/mL)” value is at least 90%.

B6: humanized antibody VH3-VL3 (antibody, V domains shown)
VH: EVQLVQSGAEVKKPGASVKVSCKASGFTLTEYTIHWVRQAPGQGLEWIGWFYPGSGGIKYNEKFQDRVTLTADTSISTVYMELSRLRSDDTVVYFCARHAFYRNYEYFDVWGTGTMVTVSS
VL: DIVMTQAPFSSPVTLGTPASISCRSSKSLLHSNGITYLYWYQQRPGQSPRLLIYQMSNLASGVPDRFSSSGSGTDFTLKISRVEAEDVGVYYCAQNLELPLTFGAGTKLEIK
notes: IgG1, kappa; tested as culture supernatant; also called VH-HM3 / VL-HM3
B6: in the experiment with CD101 [3], the binding result is reported as “binds”.
